In PMC7948472, “Structural basis for antigen recognition by methylated lysine–specific antibodies” (The Journal of Biological Chemistry, 2020) one finds Kd, koff and kon data, which are given here for two molecules.

This test deals with T1, MAP3K2 peptide, NPIFEKFGKGGTYP (Homo sapiens).
T1 construct: MAP3K2 peptide surrounding Lys260, not methylated; also called non-methylated peptide; nonmethylated peptide; source: synthetic peptide (SCRUM Inc)
T1 chain: NPIFEKFGKGGTYP
The test is described as follows: SPR; Biacore T200; each Fab immobilised on a CM5 chip by amine coupling; peptides injected at increasing concentrations; running buffer PBS with 0.005% Tween 20; global fitting of the curves, or steady-state analysis where kinetic parameters could not be determined (fast dissociation, low affinity). As to conditions: both partners purified.

For orientation: Kd means a measure of binding affinity in units of concentration. A higher Kd goes with lower affinity. By koff is commonly meant the first-order rate constant of dissociation. A high value points to a short-lived complex. One may read the kon as a measure of how fast the partners come together.

B1: Fab F9 (Fab, V domains shown)
VH: QSVEESGGRLVTPGTPLTLTCTVSGFSLNSNAISWVRQAPGEGLEWVGAIYTHGSTVYANWAKGRFTISKTSTTIELKMTSLTTEDTATYFCARHGYTYSFNLWGPGTLVTVSS
VL: AQGLTQTPSPVSAALGGTVTINCQSSQSVYGNNRLAWYQQKPGQPPKRLIYQASTLDSGVPSRFSGSGSGTQFTLTISGVQCDDAATYYCQGGYSSGDAWAFGGGTEVVVK
notes: heavy chain of rabbit Fab clone F9; they are in PDB 6LDV chain H; light chain of rabbit Fab clone F9; they are in PDB 6LDV chain L; Purified on Ni-NTA, so a His tag is surmised; source: Expi293 cells, cotransfected, purified from supernatant (Ni-NTA, SEC)
B1: the affinity, expressed as Kd, was 4 µM; the koff is 0.33 ± 0.04 s⁻¹; the kon is 86000 M⁻¹ s⁻¹.

B2: Fab E6 (Fab, V domains shown)
VH: DQSLEESGGRLVTPGTPLTLTCTVSGFSLNNNAMGWFRQAPGEGLEWIGAIYTDGSTYYASWAKGRFTISKTSTTIDLKMTSLTTEDTATYFCARHGYTYSFNLWGPGTLVTVSS
VL: DPVMTQTPPSVSAAVGGTVTISCQSSQSVYNNDNLAWYQQKPGQPPKRLIYGASTLDSGVPSRFKGSGSGTQFTLTISGVECDDAATYYCQGAYNVDIYPFGGGTEVVVK
notes: heavy chain of rabbit Fab clone E6; they are in PDB 6LDX chain H; light chain of rabbit Fab clone E6; they are in PDB 6LDX chain L; Purified on Ni-NTA, so a His tag is surmised; source: Expi293 cells, cotransfected, purified from supernatant (Ni-NTA, SEC)
B2 showed a Kd of 0.35 µM, a dissociation rate constant (koff) of 0.18 ± 0.01 s⁻¹ and an on-rate (kon) of 500000 M⁻¹ s⁻¹.
